Test results reported in paper PMC9116609 (Science Advances, 2022).
Values belong to the molecule of their own block, whether it stands above or below them.

B1: dehydrodolichyl diphosphate synthase (DHDDS), residues 1 to 333 (enzyme)
chain: MSWIKEGELSLWERFCANIIKAGPMPKHIAFIMDGNRRYAKKCQVERQEGHSQGFNKLAETLRWCLNLGILEVTVYAFSIENFKRSKSEVDGLMDLARQKFSRLMEEKEKLQKHGVCIRVLGDLHLLPLDLQELIAQAVQATKNYNKCFLNVCFAYTSRHEISNAVREMAWGVEQGLLDPSDISESLLDKCLYTNRSPHPDILIRTSGEVRLSDFLLWQTSHSCLVFQPVLWPEYTFWNLFEAILQFQMNHSVLQKARDMYAEERKRQQLERDQATVTEQLLREGLQASGDAQLRRTRLHKLSARREERVQGFLQALELKRADWLARLGTASA

Tests used:
[1] = target: T1, shcis-PT (soluble human cis-prenyltransferase complex, DHDDS-NgBR) (Homo sapiens, UniProt Q86SQ9); assay: displacement of MANT-O-GPP followed by FRET; type: binding; conditions: competition with 10 μM MANT-O-GPP; pH 7.5, 0.5 mM MgCl2, 1 μM enzyme; S1 site
T1 sequence (Q86SQ9 1-333): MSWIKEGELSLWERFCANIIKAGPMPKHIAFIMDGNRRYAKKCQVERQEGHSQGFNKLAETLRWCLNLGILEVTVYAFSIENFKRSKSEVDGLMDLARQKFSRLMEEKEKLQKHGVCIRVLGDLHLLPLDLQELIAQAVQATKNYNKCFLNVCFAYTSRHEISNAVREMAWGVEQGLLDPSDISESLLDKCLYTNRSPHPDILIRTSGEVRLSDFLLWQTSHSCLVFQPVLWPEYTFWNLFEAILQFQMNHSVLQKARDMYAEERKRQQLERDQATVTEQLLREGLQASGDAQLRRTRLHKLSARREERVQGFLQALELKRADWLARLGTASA
T1 sequence (Q96E22 73-293 partner): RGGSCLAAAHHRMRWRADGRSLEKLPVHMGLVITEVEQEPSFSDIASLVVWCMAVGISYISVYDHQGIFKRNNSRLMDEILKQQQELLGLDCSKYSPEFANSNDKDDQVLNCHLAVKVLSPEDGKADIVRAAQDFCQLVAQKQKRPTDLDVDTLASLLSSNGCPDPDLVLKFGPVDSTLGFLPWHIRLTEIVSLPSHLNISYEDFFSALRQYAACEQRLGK

[2] = target: the molecule itself; assay: crystal structure
[3] = target: B1; assay: crystal structure

IC50 [1]: 10.5 ± 3 µM
Molecule: CC(C)=CCC/C(C)=C/CC/C(C)=C/CO[P@@](=O)(O)OP(=O)(O)O [FPP]

Molecule: B1
binding result [2]: binds

binding result [3]: binds
B2: Nogo B-receptor (NgBR), pseudo cis-prenyltransferase domain, residues 73 to 293 lacking residues 167 to 175 (domain or fragment)
chain: RGGSCLAAAHHRMRWRADGRSLEKLPVHMGLVITEVEQEPSFSDIASLVVWCMAVGISYISVYDHQGIFKRNNSRLMDEILKQQQELLGLDCSKDKDDQVLNCHLAVKVLSPEDGKADIVRAAQDFCQLVAQKQKRPTDLDVDTLASLLSSNGCPDPDLVLKFGPVDSTLGFLPWHIRLTEIVSLPSHLNISYEDFFSALRQYAACEQRLGK
